According to patent US20180291081A1 (GUANGZHOU INSTITUTES OF BIOMEDICINE AND HEALTH CHINESE …, published 2018):

Target: T1, PD-1 molecule (refolded, purified and biotinylated PD-1 of Example 2) (UniProt Q15116 33-150, biotinylated with BirA enzyme (site not stated))
T1 construct: also called Programmed Death-1
Test: SPR (BIAcore T200), single-cycle kinetics; biotinylated PD-1 captured via streptavidin, PDL-1 variant in solution
Protocol: The anti-streptavidin antibody (GenScript) was added to the coupling buffer (10 mM sodium acetate buffer, pH 4.77). The antibody was then flowed through a CMS chip previously activated with EDC and NHS to immobilize the antibody on the chip surface. Finally, the unreacted activation surface was blocked with a solution of ethanolamine hydrochloride to complete the coupling process.
A low concentration of streptavidin is allowed to flow over the surface of the antibody-coated chip, then the biotinylated PD-1 is passed through the detection channel and the other channel is used as a reference channel. Then, 0.05 mM biotin was passed through the chip at a flow rate of 10 μL/min for 2 min to block the remaining binding sites of streptavidin. The single-cycle kinetic analysis method was used to measure its affinity. […] The binding time for each injection was 120 s, and it was disassociated for 600 s after the last injection. The chips were regenerated with 10 mMGly-HCl, pH 1.75 after each round of assays. Kinetic parameters were calculated using BIAcore Evaluation software.

T1 sequence (Q15116 33-150 limits assumed): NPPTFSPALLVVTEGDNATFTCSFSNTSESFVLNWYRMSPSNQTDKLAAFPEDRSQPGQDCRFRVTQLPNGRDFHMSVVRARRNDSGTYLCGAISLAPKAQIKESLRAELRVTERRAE

Binder	Kd [µM]	koff [s⁻¹]	kon [M⁻¹ s⁻¹]
high affinity PDL-1 molecule L1A4 (ligand) WTVTVPKDLYVVEYGSNMTIECKFPVEKQLDLAALQVFWMMEDKNIIQFVHGEEDLKVQHSSYRQRARLLKDQLSLGNAALQITDVKLQDAGVYTCLISYGGADYKRITVKVNAPYNKINQRILVVDPVTSEHELTCQAEGYPKAEVIWTSSDHQVLSGKTTTTNSKREEKLFNVTSTLRINTTTNEIFYCTFRRLDPEENHTAELVIPEL	0.914	0.0439	48000
high affinity PDL-1 molecule L3B3a (ligand) FTVTVPKDLYVVEYGSNMTIECKFPVEKQLDLAALQVFWMMEDKNIVSFVHGEEDLKVQHSSYRQRARLLKDQLSLGNAALQITDVKLQDAGVYTCLIAYKGADYKRITVKVNAPYNKINQRILVVDPVTSEHELTCQAEGYPKAEVIWTSSDHQVLSGKTTTTNSKREEKLFNVTSTLRINTTTNEIFYCTFRRLDPEENHTAELVIPEL	0.557	0.09	162000
high affinity PDL-1 molecule L3C7 (ligand) FTVTVPKDLYVVEYGSNMTIECKFPVEKQLDLAALEVHWFMEDKNIIQFVHGEEDLKVQHSSYRQRARLLKDQLSLGNAALQITDVKLQDAGVYTCLIGYKGADYKRITVKVNAPYNKINQRILVVDPVTSEHELTCQAEGYPKAEVIWTSSDHQVLSGKTTTTNSKREEKLFNVTSTLRINTTTNEIFYCTFRRLDPEENHTAELVIPEL	0.75	0.0329	43900
high affinity PDL-1 molecule L3B3b (ligand) FTVTVPKDLYVVEYGSNMTIECKFPVEKQLDLAALQVFWMMEDKNIVSFVHGEEDLKVQHSSYRQRARLLKDQLSLGNAALQITDVKLQDAGVYVCLIAYKGADYKRITVKVNAPYNKINQRILVVDPVTSEHELTCQAEGYPKAEVIWTSSDHQVLSGKTTTTNSKREEKLFNVTSTLRINTTTNEIFYCTFRRLDPEENHTAELVIPEL	0.666	0.0573	86000
high affinity PDL-1 molecule L2F4 (ligand) FTVTVPKDLYVVEYGSNMTIECKFPVEKQLDLAALEVHWFMEDKNIFSFVHGEEDLKVQHSSYRQRARLLKDQLSLGNAALQITDVKLQDAGVYRCMISYGGADYKRITVKVNAPYNKINQRILVVDPVTSEHELTCQAEGYPKAEVIWTSSDHQVLSGKTTTTNSKREEKLFNVTSTLRINTTTNEIFYCTFRRLDPEENHTAELVIPEL	7.54	0.154	20500
high affinity PDL-1 molecule L2A6 (ligand) FTVTVPKDLYVVEYGSNMTIECKFPVEKQLDLAALQVHWFMEDKNIASFVHGEEDLKVQHSSYRQRARLLKDQLSLGNAALQITDVKLQDAGVYRCMISYGGADYKRITVKVNAPYNKINQRIRVVDPVTSEHELTCQAEGYPKAEVIWTSSDHQVLSGKTTTTNSKREEKLFNVTSTLRINTTTNEIFYCTFRRLDPEENHTAELVIPEL	4.74	0.0458	9670
high affinity PDL-1 molecule L1C2 (ligand) FTVTVPKDLYVVEYGSNMTIECKFPVEKQLDLAALQVNWFMEDKNIIQFVHGEEDLKVQHSSYRQRARLLKDQLSLGNAALQITDVKLQDAGVYVCLISYGGADYKRITVKVNAPYNKINQRILVVDPVTSEHELTCQAEGYPKAEVIWTSSDHQVLSGKTTTTNSKREEKLFNVTSTLRINTTTNEIFYCTFRRLDPEENHTAELVIPEL	0.751	0.0376	50100
high affinity PDL-1 molecule L2G10 (ligand) FTVTVPKDLYVVEYGSNMTIECKFPVEKQLDLAALQVHWFMEDKNIYSFVHGEEDLKVQHSSYRQRARLLKDQLSLGNAALQITDVKLQDAGVYRCMISYGGADYKRITVKVNAPYNKINQRILVVDPVTSEHELTCQAEGYPKAEVIWTSSDHQVLSGKTTTTNSKREEKLFNVTSTLRINTTTNEIFYCTFRRLDPEENHTAELVIPEL	4.6	0.178	38700
high affinity PDL-1 molecule L2H3 (ligand) FTVTVPKDLYVVEYGSNMTIECKFPVEKQLDLAALQVHWFMEDKNILSFVHGEEDLKVQHSSYRQRARLLKDQLSLGNAALQITDVKLQDAGVYRCMISYGGADYKRITVKVNAPYNKINQRILVVDPVTSEHELTCQAEGYPKAEVIWTSSDHQVLSGKTTTTNSKREEKLFNVTSTLRINTTTNEIFYCTFRRLDPEENHTAELVIPEL	8.97	0.153	17100

Further binders by falling Kd, results first:

Kd [µM]	koff [s⁻¹]	kon [M⁻¹ s⁻¹]	Binder
11.7	0.15	12800	high affinity PDL-1 molecule L2B8 (ligand) FTVTVPKDLYVVEYGSNMTIECKFPVEKQLDLAALQVHWFMEDKNIVSFVHGEEDLKVQHSSYRQRARLLKDQLSLGNAALQITDVKLQDAGVYRCMISYGGADYKRITVKVNAPYNKINQRILVVDPVTSEHELTCQAEGYPKAEVIWTSSDHQVLSGKTTTTNSKREEKLFNVTSTLRINTTTNEIFYCTFRRLDPEENHTAELVIPEL
11.2	0.124	11000	high affinity PDL-1 molecule L2C4 (ligand) FTVTVPKDLYVVEYGSNMTIECKFPVEKQLDLAALQVHWWMEDKNIVSFVHGEEDLKVQHSSYRQRARLLKDQLSLGNAALQITDVKLQDAGVYRCMISYGGADYKRITVKVNAPYNKINQRILVVDPVTSEHELTCQAEGYPKAEVIWTSSDHQVLSGKTTTTNSKREEKLFNVTSTLRINTTTNEIFYCTFRRLDPEENHTAELVIPEL
10.9	0.123	11300	high affinity PDL-1 molecule L2D7 (ligand) FTVTVPKDLYVVEYGSNMTIECKFPVEKQLDLAALEVHWFMEDKNILSFVHGEEDLKVQHSSYRQRARLLKDQLSLGNAALQITDVKLQDAGVYRCMISYGGADYKRITVKVNAPYNKINQRILVVDPVTSEHELTCQAEGYPKAEVIWTSSDHQVLSGKTTTTNSKREEKLFNVTSTLRINTTTNEIFYCTFRRLDPEENHTAELVIPEL
10.3	0.134	13000	high affinity PDL-1 molecule L2B6 (ligand) FTVTVPKDLYVVEYGSNMTIECKFPVEKQLDLAALEVHWFMEDKNIVSFVHGEEDLKVQHSSYRQRARLLKDQLSLGNAALQITDVKLQDAGVYRCMISYGGADYKRITVKVNAPYNKINQRIRVVDPVTSEHELTCQAEGYPKAEVIWTSSDHQVLSGKTTTTNSKREEKLFNVTSTLRINTTTNEIFYCTFRRLDPEENHTAELVIPEL
10.1	0.122	12200	high affinity PDL-1 molecule L2F5 (ligand) FTVTVPKDLYVVEYGSNMTIECKFPVEKQLDLAALEVHWFMEDKNISSFVHGEEDLKVQHSSYRQRARLLKDQLSLGNAALQITDVKLQDAGVYRCMISYGGADYKRITVKVNAPYNKINQRILVVDPVTSEHELTCQAEGYPKAEVIWTSSDHQVLSGKTTTTNSKREEKLFNVTSTLRINTTTNEIFYCTFRRLDPEENHTAELVIPEL
3.44	0.104	30200	high affinity PDL-1 molecule L1F2 (ligand) FTVTVPKDLYVVEYGSNMTIECKFPVEKQLDLAALQVNWLMEDKNIIQFVHGEEDLKVQHSSYRQRARLLKDQLSLGNAALQITDVKLQDAGVYLCLISYGGADYKRITVKVNAPYNKINQRILVVDPVTSEHELTCQAEGYPKAEVIWTSSDHQVLSGKTTTTNSKREEKLFNVTSTLRINTTTNEIFYCTFRRLDPEENHTAELVIPEL
0.964	0.0526	54500	high affinity PDL-1 molecule L3B3d (ligand) WTVTVPKDLYVVEYGSNMTIECKFPVEKQLDLAALQVFWMMEDKNILSFVHGEEDLKVQHSSYRQRARLLKDQLSLGNAALQITDVKLQDAGVYVCLIAYKGADYKRITVKVNAPYNKINQRILVVDPVTSEHELTCQAEGYPKAEVIWTSSDHQVLSGKTTTTNSKREEKLFNVTSTLRINTTTNEIFYCTFRRLDPEENHTAELVIPEL
0.648	0.044	67800	high affinity PDL-1 molecule L3B3C (ligand) WTVTVPKDLYVVEYGSNMTIECKFPVEKQLDLAALQVFWMMEDKNIVSFVHGEEDLKVQHSSYRQRARLLKDQLSLGNAALQITDVKLQDAGVYVCLIAYKGADYKRITVKVNAPYNKINQRILVVDPVTSEHELTCQAEGYPKAEVIWTSSDHQVLSGKTTTTNSKREEKLFNVTSTLRINTTTNEIFYCTFRRLDPEENHTAELVIPEL
0.499	0.071	142000	high affinity PDL-1 molecule L3B3 (ligand) FTVTVPKDLYVVEYGSNMTIECKFPVEKQLDLAALQVFWMMEDKNIIQFVHGEEDLKVQHSSYRQRARLLKDQLSLGNAALQITDVKLQDAGVYTCLIAYKGADYKRITVKVNAPYNKINQRILVVDPVTSEHELTCQAEGYPKAEVIWTSSDHQVLSGKTTTTNSKREEKLFNVTSTLRINTTTNEIFYCTFRRLDPEENHTAELVIPEL
0.115	0.0139	120000	high affinity PDL-1 molecule L3C7a (ligand) FTVTVPKDLYVVEYGSNMTIECKFPVEKQLDLAALEVHWFMEDKNIFSFVHGEEDLKVQHSSYRQRARLLKDQLSLGNAALQITDVKLQDAGVYTCLIGYKGADYKRITVKVNAPYNKINQRILVVDPVTSEHELTCQAEGYPKAEVIWTSSDHQVLSGKTTTTNSKREEKLFNVTSTLRINTTTNEIFYCTFRRLDPEENHTAELVIPEL
